Measurements reported in patent publication US20160280750A1 (NEWSOUTH INNOVATIONS, published 2016).

T1: HLA-B*2705 (human), P01889
T1 chain: not shown

T2: HLA-B*2705 (human, UniProt P01889 25-302 at identity 0.93))
T2 construct: MHC class I molecule assembled with candidate peptides in the REVEAL assay (ProImmune)
T2 MHC heavy: not shown

B1: Peptide I.D. 35 … (peptide)
peptide: DPCTTWCDA
modifications: not checked
B2: Peptide I.D. 11 RQLEDIRLD (peptide)
peptide: RQLEDIRLD
B3: Peptide I.D. 12 QLEDIRLDG (peptide)
peptide: QLEDIRLDG
notes: Opticin nonamer
B4: Peptide I.D. 13 LEDIRLDGN (peptide)
peptide: LEDIRLDGN
B5: Peptide I.D. 14 DEYFKRFNA (peptide)
peptide: DEYFKRFNA
B6: Peptide I.D. 15 EYFKRFNAL (peptide)
peptide: EYFKRFNAL
B7: Peptide I.D. 16 YFKRFNALQ (peptide)
peptide: YFKRFNALQ
B8: Peptide I.D. 17 FKRFNALQY (peptide)
peptide: FKRFNALQY
B9: Peptide I.D. 19 RFNALQYLR (peptide)
peptide: RFNALQYLR
B10: Peptide I.D. 20 FNALQYLRL (peptide)
peptide: FNALQYLRL
B11: Peptide I.D. 21 NALQYLRLS (peptide)
peptide: NALQYLRLS
B12: Peptide I.D. 22 ALQYLRLSH (peptide)
peptide: ALQYLRLSH
B13: Peptide I.D. 24 QYLRLSHNE (peptide)
peptide: QYLRLSHNE
B14: Peptide I.D. 27 LNLRSIDLQ (peptide)
peptide: LNLRSIDLQ
B15: Peptide I.D. 28 NLRSIDLQD (peptide)
peptide: NLRSIDLQD
B16: Peptide I.D. 29 LRSIDLQDF (peptide)
peptide: LRSIDLQDF
B17: Peptide I.D. 30 RSIDLQDFF (peptide)
peptide: RSIDLQDFF
B18: Peptide I.D. 31 SIDLQDFFS (peptide)
peptide: SIDLQDFFS
B19: Peptide I.D. 32 IDLQDFFSS (peptide)
peptide: IDLQDFFSS
B20: Peptide I.D. 33 DLQDFFSSL (peptide)
peptide: DLQDFFSSL
B21: Peptide I.D. 34 LQDFFSSLI (peptide)
peptide: LQDFFSSLI
B22: Peptide I.D. 36 RRRWRRLTV (peptide)
peptide: RRRWRRLTV
B23: Peptide I.D. 37 ARGQPGVMG (peptide)
peptide: ARGQPGVMG
B24: Peptide I.D. 6 HKHTRRQLE (peptide)
peptide: HKHTRRQLE
B25: Peptide I.D. 7 KHTRRQLED (peptide)
peptide: KHTRRQLED
B26: Peptide I.D. 8 HTRRQLEDI (peptide)
peptide: HTRRQLEDI
B27: Peptide I.D. 9 TRRQLEDIR (peptide)
peptide: TRRQLEDIR

Target: T1, HLA-B*2705 (human), P01889
Assay: REVEAL MHC-peptide binding assay, incorporation into HLA-B*2705

In the case of B1, the % Positive Control (REVEAL binding score) (% of positive control) is reported as 2.18.

Target: T2, HLA-B*2705
Assay: as above

In order of falling “% Positive Control (REVEAL binding score)” value:
1. B22  44 % of positive control
2. B4  2.17 % of positive control
3. B10  1.81 % of positive control
4. B9  1.2 % of positive control
5. B2  0.5 % of positive control
6. B13  0.5 % of positive control
7. B6  0.48 % of positive control
8. B7  0.47 % of positive control
9. B20  0.35 % of positive control
10. B18  0.26 % of positive control
11. B15  0.17 % of positive control
12. B8  0.15 % of positive control
13. B12  0.13 % of positive control
14. B19  0.13 % of positive control
15. B11  0.11 % of positive control
16. B14  0.11 % of positive control
17. B21  0.11 % of positive control
18. B16  0.08 % of positive control
19. B17  0.08 % of positive control
20. B5  0.06 % of positive control
21. B25  0.04 % of positive control
22. B26  0.04 % of positive control
23. B27  0.02 % of positive control
24. B3  0 % of positive control
25. B23  0 % of positive control
26. B24  0 % of positive control
